Experimental findings from paper PMC4047826 are described below.

The term stoichiometry N denotes a count of units in the complex or per binding partner.

This experiment deals with Dead streptavidin subunit with a polyaspartate insertion in the 3/4 loop (Dd) (Streptomyces avidinii) (UniProt P22629). Put plainly: mixed refold, anion-exchange chromatography and SDS-PAGE without boiling; subunits refolded together from inclusion bodies into PBS; tetramers resolved on Mono-Q (20 mM Tris-HCl pH 8.0, 0-1 M NaCl gradient); peaks run on SDS-PAGE unboiled (tetramer) or boiled (subunit composition), Coomassie.

For the substance “Dead streptavidin subunit with a polyaspartate insertion in the 3/4 loop (Dd) (from UniProt P22629 37-163) (domain or fragment)”, the stoichiometry N was determined as 4.
